Measured values as given in the supplement of paper PMC10126150.
± gives the standard deviation of the averaged measurements.

System: ATP
Assay: switch fluorescence ratio, 500 uM ATP over buffer (Cy3 cluster intensity, sum of 5 cycles each) (fold (ratio)); higher = stronger signal-on switching upon ATP binding; sequences stand for … in TCGTCGGCAGCGTCAGATGTGTATAAGAGACAGTTTTTTTTTTTTTTTTTTTTTTTTT…TC
Conditions: aptamer strand: ATP DNA aptamer (quencher-CACCTGGGGGAGTATTGCGGAGGAAGG + anchor), 100 nM annealed; ATP concentration: 500 uM
Method in brief: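 After annealing to 100 nM quencher-labelled ATP aptamer, Cy3-labelled switching-strand clusters on a modified Illumina MiSeq flow-cell were imaged in selection buffer. A second image followed after 15 min with 500 uM ATP at 22 °C, and five such buffer/ATP cycles were done, each separated by NaOH stripping and re-annealing. The fluorescence ratio, averaged per switch-domain sequence, is summed target-cycle over summed buffer-cycle Cy3 intensity per cluster, with clusters outside 100-1000 RFU excluded.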
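Also: ATP exposure 15 min at 22 °C before imaging.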

| Sequence | switch fluorescence ratio |
| --- | --- |
| GGTTACTGTT | 1.08 ± 0.096 |
| GGTTACTTTA | 1.07 ± 0.064 |
| GGTTAGAAGG | 0.96 ± 0.031 |
| GGTTAGATAG | 1.01 ± 0.035 |
| GGTTAGGGGC | 0.995 ± 0.04 |
| GGTTAGTAGG | 0.986 ± 0.021 |
| GGTTAGTATT | 0.987 ± 0.021 |
| GGTTAGTGTC | 1.05 ± 0.047 |
| GGTTAGTGTG | 0.997 ± 0.015 |
| GGTTATAGCT | 1.02 ± 0.034 |
| GGTTATCCGG | 1.01 ± 0.032 |
| GGTTATCGAT | 0.999 ± 0.0014 |
| GGTTATGCTG | 1.03 ± 0.1 |
| GGTTATGGGG | 0.985 ± 0.027 |
| GGTTCAAGGG | 0.984 ± 0.02 |
| GGTTCAGGTA | 0.9876 ± 0.0062 |
| GGTTCAGTG | 0.9936 ± 0.0079 |
| GGTTCCTTA | 0.994 ± 0.045 |
| GGTTCGGGAA | 0.9965 ± 0.0022 |
| GGTTCGGGGG | 0.997 ± 0.037 |
| GGTTCGGTTC | 1.02 ± 0.017 |
| GGTTCGTATA | 1.01 ± 0.017 |

| Sequence | switch fluorescence ratio |
| --- | --- |
| GGTTCGTTGG | 0.993 ± 0.013 |
| GGTTCTAAGA | 0.98129 ± 0.00096 |
| GGTTCTACTC | 1.02 ± 0.013 |
| GGTTCTATGG | 0.99441 ± 3.1e-05 |
| GGTTCTGATC | 0.981 ± 0.01 |
| GGTTCTTATA | 1.046 ± 0.008 |
| GGTTGAACCG | 1.01 ± 0.06 |
| GGTTGAAGTG | 0.974 ± 0.012 |
| GGTTGACGGG | 0.985 ± 0.055 |
| GGTTGAGGAG | 1.04 ± 0.074 |
| GGTTGAGTGG | 1 ± 0.036 |
| GGTTGATATG | 1 ± 0.041 |
| GGTTGATTTA | 1.036 ± 0.0037 |
| GGTTGCAGAG | 1.01 ± 0.024 |
| GGTTGCAGGG | 1.01 ± 0.011 |
| GGTTGCATTA | 0.9923 ± 0.0019 |
| GGTTGCGTCT | 0.9613 ± 0.003 |
| GGTTGGAAAG | 0.9919 ± 0.0013 |
| GGTTGGCATA | 0.984 ± 0.016 |
| GGTTGGCCCC | 1.02 ± 0.019 |
| GGTTGGGTGT | 1.02 ± 0.027 |
| GGTTGGTATT | 1.001 ± 0.0099 |

| Sequence | switch fluorescence ratio |
| --- | --- |
| GGTTGTAGTT | 0.963 ± 0.016 |
| GGTTGTATGG | 0.975 ± 0.012 |
| GGTTGTCCTA | 0.978 ± 0.023 |
| GGTTGTCTGC | 0.968 ± 0.055 |
| GGTTGTGGCA | 1.03 ± 0.011 |
| GGTTGTTACG | 0.987 ± 0.033 |
| GGTTGTTCCG | 0.9973 ± 0.0073 |
| GGTTTAAGTC | 1.06 ± 0.029 |
| GGTTTACAGC | 0.979 ± 0.012 |
| GGTTTACGGC | 1 ± 0.016 |
| GGTTTACTG | 1.03 ± 0.035 |
| GGTTTAGAGC | 1.01 ± 0.02 |
| GGTTTAGGCA | 0.999 ± 0.027 |
| GGTTTCCATT | 1 ± 0.054 |
| GGTTTCCCTG | 0.9984 ± 0.0033 |
| GGTTTCCTTT | 0.992 ± 0.021 |
| GGTTTCGACG | 1.01 ± 0.011 |
| GGTTTCGGCG | 0.966 ± 0.04 |
| GGTTTCTAGG | 0.99311 ± 0.00018 |
| GGTTTCTCCG | 1.46 ± 0.017 |
| GGTTTCTGAA | 0.998 ± 0.02 |
| GGTTTCTTCG | 1.09 ± 0.1 |

| Sequence | switch fluorescence ratio |
| --- | --- |
| GGTTTCTTGA | 1.02 ± 0.021 |
| GGTTTGACGG | 1.01 ± 0.053 |
| GGTTTGATGT | 0.975 ± 0.023 |
| GGTTTGCAGC | 0.975 ± 0.021 |
| GGTTTGTCGT | 0.957 ± 0.04 |
| GGTTTGTGTG | 0.991 ± 0.018 |
| GGTTTTAAAT | 0.98195 ± 0.00028 |
| GGTTTTAGCT | 0.997 ± 0.016 |
| GGTTTTAGGG | 0.996 ± 0.039 |
| GGTTTTAGTG | 0.967 ± 0.037 |
| GGTTTTATGC | 0.985 ± 0.0053 |
| GGTTTTATGG | 0.988 ± 0.027 |
| GGTTTTATTG | 0.987 ± 0.044 |
| GGTTTTATTT | 0.984 ± 0.068 |
| GGTTTTCGTT | 0.99 ± 0.021 |
| GGTTTTCTCG | 1.03 ± 0.023 |
| GGTTTTCTGG | 1.02 ± 0.027 |
| GGTTTTGATC | 0.972 ± 0.047 |
| GGTTTTGGCC | 1.02 ± 0.03 |
